The results in this text go back to PMC4154877, “Mouse, but Not Human, ApoB-100 Lipoprotein Cholesterol Is a Potent Innate Inhibitor of Streptococcus pneumoniae Pneumolysin” (PLoS Pathogens, 2014).

Positions count from the first letter of the chain named. Numbers in names are those of the source.

The data set “FRET or BRET” concerns the molecule itself. Put plainly: FRET or BRET. Background: Bioluminescence resonance energy transfer reports proximity on the nanometre scale.
Data set [1] concerns the molecule itself. Put plainly: SDS-agarose gel electrophoresis of SDS-resistant oligomer, immunoblot; PLY^PPL incubated with mouse or human serum diluted 1:2 to 1:40 in HEPES buffered saline, 37°C, 20 minutes; SDS-AGE (1.5%), blot probed with rabbit anti-PLY serum. On the technique in general: Immunoblotting shows a protein as a band on a membrane.

B1: pre-pore locked pneumolysin with Cys-117, labelled with Alexa Fluor 488 or 568 (PLY^PPL D117C) (natural protein, Streptococcus pneumoniae, UniProt P0C2J9 1-471, looked up)
chain: MANKAVNDFILAMNYDKKKLLTHQCESIENRFIKEGNQLPDEFVVIERKKRSLSTNTSDISVTATNDSRLYPGALLVVDETLLENNPTLLAVDRAPMTYSIDLPGLASSDSFLQVECPSNSSVRGAVNDLLAKWHQDYGQVNNVPARMQYEKITAHSMCQLKVKFGSDFEKTGNSLDIDFNSVHSGEKQIQIVNFKQIYYTVSVDAVKNPGDVFQDTVTVEDLKQRGISAERPLVYISSVAYGRQVYLKLETTSKSDEVEAAFEALIKGVKVAPQTEWKQILDNTEVKAVILGGDPSSGARVVTGKVDMVEDLIQEGSRFTADHPGLPISYTTSFLRDNVVATFQNSTDYVETKVTAYRNGDLLLDHSGAYVAQYYITWNELSYDHQGKEVLTPKAWDRNGQDLTAHFTTSIPLKGNVRNLSVKIREATGLAWEWWRTVYEKTDLPLVRKRTISIWGTTLYPQVEDKVEND
modifications: Alexa Fluor 488 (donor) or Alexa Fluor 568 (acceptor) on the sulfhydryl of Cys-117; disulfide between cysteine-substituted Gly-25 and Glu-159
notes: Donor-labelled protein was mixed with acceptor-labelled or unlabelled (U) protein in the FRET assay; also called D labeled PLY^PPL; A labeled PLY^PPL; source: E. coli Tuner cells, purified
As to B1, the binding result in the data set “FRET or BRET” is “binds”.

B2: pre-pore locked pneumolysin (PLY^PPL) (natural protein)
chain: B1 chain with C117D
modifications: disulfide between cysteine-substituted Gly-25 and Glu-159
notes: pneumolysin (PLY) of Streptococcus pneumoniae, codon-optimised gene in pET-15b (NdeI/BamHI); cysteine-less background (Cys-428 to Ala) with a disulfide between Cys-25 and Cys-159; also called prepore locked version of PLY; source: E. coli Tuner cells, purified
Turning to B2, the binding result in data set [1] is listed as “binds”.
